Measured values published in US10221439B2, “Sensors, methods and kits for detecting nicotinamide adenine dinucleotides” (Max-Planck-Gesellschaft zur Förderung der Wissenschaften …, priority 2015, dated 2019).

Experiment: Titration of NAD-specific FRET sensor with NAD^+ and NADP^+
Assay type: binding
Experimental: In order to evaluate, that these mutations were sufficient to fully switch the specificity of the cofactor binding site of SPR from NADP(H) to NAD(H), we prepared titration experiments according to the similar procedure explained herein (example 3). The labelled sensor were diluted in buffer solution containing defined concentrations of NAD^+ and NADP^+ and measure with the fluorimeter (TECAN) (FIG. 4).

B1: SPR mutant with Asp^41 and Ala^42: initial trial SPR mutant sensor for NAD^+ (conjugate, UniProt P35270 1-261, looked up, variant A41D R42A)
Sepiapterin reductase: MEGGLGRAVCLLTGASRGFGRTLAPLLASLLSPGSVLVLSDANDEALRQLEAELGAERSGLRVVRVPADLGAEAGLQQLLGALRELPRPKGLQRLLLINNAGSLGDVSKGFVDLSDSTQVNNYWALNLTSMLCLTSSVLKAFPDSPGLNRTVVNISSLCALQPFKGWALYCAGKAARDMLFQVLALEEPNVRVLNYAPGPLDTDMQQLARETSVDPDMRKGLQELKAKGKLVDCKVSAQKLLSLLEKDEFKSGAHVDFYDK
  affinity and specificity for NAD^+: low affinity, but high specificity for NAD^+
